The term Ki denotes the dissociation constant of the complex between target and ligand, obtained from inhibition or displacement. A word on the Kd: it is the equilibrium constant for the complex coming apart.

Test [1] concerns the target RAMP3–CLR ECD. The conditions noted are these: read-out: KI, equilibrium affinity; purified RAMP3–CLR ECD complex; ref [31]; cited from earlier work.
Test [2] addresses RAMP2–CLR ECD. To be noted: read-out: KI, equilibrium affinity; purified RAMP2–CLR ECD complex; ref [31]; cited from earlier work.
Test [3] concerns the target NLuc–CLR–RAMP3 receptor (AM2R) in COS-7 membranes (human) (UniProt Q16602). Put plainly: FRET or BRET. For orientation: BRET reads energy transfer from a luciferase to a nearby fluorophore.

Chain of NLuc–CLR–RAMP3 receptor (AM2R) in COS-7 membranes (human) (Q16602 23-461, chain 1 of 2): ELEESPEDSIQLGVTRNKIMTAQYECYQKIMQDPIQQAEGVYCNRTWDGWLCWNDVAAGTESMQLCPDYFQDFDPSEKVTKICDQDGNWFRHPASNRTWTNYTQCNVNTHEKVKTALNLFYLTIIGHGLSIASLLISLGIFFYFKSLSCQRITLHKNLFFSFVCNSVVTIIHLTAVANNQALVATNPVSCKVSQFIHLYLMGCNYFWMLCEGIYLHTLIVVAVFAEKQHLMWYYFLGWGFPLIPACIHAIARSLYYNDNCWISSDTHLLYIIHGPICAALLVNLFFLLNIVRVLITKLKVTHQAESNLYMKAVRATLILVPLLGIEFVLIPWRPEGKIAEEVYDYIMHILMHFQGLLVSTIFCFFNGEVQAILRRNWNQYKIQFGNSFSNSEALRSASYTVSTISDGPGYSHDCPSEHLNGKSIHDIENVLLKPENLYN
Chain of NLuc–CLR–RAMP3 receptor (AM2R) in COS-7 membranes (human) (O60896 24-148, chain 2 of 2, further chain): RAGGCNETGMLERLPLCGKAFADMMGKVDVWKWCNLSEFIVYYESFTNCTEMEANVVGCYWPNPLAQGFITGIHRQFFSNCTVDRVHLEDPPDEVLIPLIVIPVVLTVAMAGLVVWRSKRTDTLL

For “AM2/IMD: Synthetic human peptide AM2/IMD(1–47) purchased from Bachem”, the Ki was roughly 2000 nM in test [1] and roughly 14000 nM in test [2].
As for AM2/IMD–TAMRA (peptide), in test [3], the Kd amounted to 7 nM, the half-life (t1/2) from the off-rate of the association kinetics turned out to be 41 min, the half-life of the fast component of dissociation came out at 7 min and the half-life of the slow component of dissociation was 76 min.
The like results for AM–TAMRA (peptide) were, in that order, 26 nM, 2.6 min, 0.75 min and 6.9 min.

These data come from article PMC10248883 (The Journal of Biological Chemistry, 2023).
